Substitutions are numbered along the chain they refer to.
T1: SK-OV-3细胞上的CD73 (human, UniProt P21589 27-549)
T1 construct: whole, on cells; Endogenous CD73 of the human CD73-positive cell line SK-OV-3; also called 人CD73阳性细胞; SK-OV-3细胞表面的CD73
T1 sequence (looked up): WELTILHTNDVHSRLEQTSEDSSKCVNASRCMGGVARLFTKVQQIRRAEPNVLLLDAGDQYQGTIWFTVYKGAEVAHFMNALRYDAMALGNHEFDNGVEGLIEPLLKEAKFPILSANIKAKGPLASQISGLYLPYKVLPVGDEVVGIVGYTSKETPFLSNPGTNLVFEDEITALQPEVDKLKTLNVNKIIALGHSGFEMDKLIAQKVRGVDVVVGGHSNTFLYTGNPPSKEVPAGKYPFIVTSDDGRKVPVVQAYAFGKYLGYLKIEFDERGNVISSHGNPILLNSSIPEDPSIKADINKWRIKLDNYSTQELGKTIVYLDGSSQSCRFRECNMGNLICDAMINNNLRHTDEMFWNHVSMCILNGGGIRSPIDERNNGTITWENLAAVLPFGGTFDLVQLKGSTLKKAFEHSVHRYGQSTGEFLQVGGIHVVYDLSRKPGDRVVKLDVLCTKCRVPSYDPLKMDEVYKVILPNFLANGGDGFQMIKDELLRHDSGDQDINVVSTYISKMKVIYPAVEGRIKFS

T2: 重组人CD73蛋白 (human, UniProt P21589 27-547, limits assumed)
T2 construct: Coated at 3 ug/ml in the ELISA and used at 5 ug/ml in the enzyme assay; also called rhCD73
T2 sequence (looked up): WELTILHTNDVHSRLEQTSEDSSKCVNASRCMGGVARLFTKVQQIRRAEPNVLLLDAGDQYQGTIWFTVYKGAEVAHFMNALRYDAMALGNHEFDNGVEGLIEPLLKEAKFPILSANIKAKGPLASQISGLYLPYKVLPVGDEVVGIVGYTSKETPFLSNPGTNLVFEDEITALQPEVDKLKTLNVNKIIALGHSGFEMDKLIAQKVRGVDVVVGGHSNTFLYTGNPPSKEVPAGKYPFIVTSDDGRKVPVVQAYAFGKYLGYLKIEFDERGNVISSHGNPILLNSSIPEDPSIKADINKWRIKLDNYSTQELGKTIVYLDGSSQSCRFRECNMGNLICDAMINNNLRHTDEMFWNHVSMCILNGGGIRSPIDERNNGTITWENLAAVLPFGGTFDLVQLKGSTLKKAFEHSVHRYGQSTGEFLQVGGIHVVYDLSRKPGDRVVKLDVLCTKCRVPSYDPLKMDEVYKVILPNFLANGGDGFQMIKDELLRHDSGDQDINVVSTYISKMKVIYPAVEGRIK

B1: 137-4 (antibody, IgG1, V domains shown)
VH: QVQLVQSGAEVKKPGSSVKVSCKASGYSFTGYYIHWVRQAPGQGLEWMGRINPYNGATTYNQNFKDRVTITVDKSTSTAYMELSSLRSEDTAVYYCARFHYGAVDYWGQGTLVTVSS
VL: DIQMTQSPSSLSASVGDRVTITCKASQDINTYLTWYQQKPGKAPKTLIYRANILVDGVPSRFSGSGSGTDFTLTISSLQPEDFATYYCLQYEEFPLTFGGGTKVEIKR
notes: also called 人源化CD73抗体; CQ137人源化抗体; not shown: kappa constant region
B2: 137-9 (antibody, IgG1, V domains shown)
VH: B1 VH with V104P, Y106L
VL: B1 VL with E92D, E93A
notes: as for B1
B3: 137-6 (antibody, IgG1, V domains shown)
VH: B1 VH with V104P, D105E
VL: B1 VL with E92A
notes: as for B1
B4: 137-5 (antibody, IgG1, V domains shown)
VH: B1 VH with V104A
VL: B1 VL with E92N
notes: as for B1
B5: 137-8 (antibody, IgG1, V domains shown)
VH: B1 VH with V104P, Y106F
VL: B1 VL with E92D, E93Q
notes: as for B1
B6: 137-7 (antibody, IgG1, V domains shown)
VH: B1 VH with V104P, D105N
VL: B1 VL with E92D, E93D
notes: as for B1

Molecular target: T1, SK-OV-3细胞上的CD73
Assay: flow cytometry on SK-OV-3 cells, Anti-hFC-APC

binding result	Binder
binds	B1
binds	B2
binds	B3
binds	B4
binds	B5
binds	B6

Molecular target: T2, 重组人CD73蛋白
Assay: ELISA, recombinant human CD73 coated at 3 ug/ml

binding result	Binder
binds	B1
binds	B2
binds	B3
binds	B4
binds	B5
binds	B6

From CN113045659A (NOVOPROTEIN SCIENT INC, dated 2021)
